Patent US20160280788A1, “USE OF ANTIBODIES AGAINST ICAM-1 IN THE TREATMENT OF PATIENTS WITH RELAPSED CANCER” (BioInvent International AB, priority 2010, published 2016)
Entries after “also recorded” stand apart in the source; their conditions may differ. Read-outs that look alike come from different tables or passages of the source.

How the values were obtained:
PBMC = PBMC / T cell proliferation; type: cell-based
[1] = system: B lymphoma cell line (CL-01); assay: ADCC of tumor cells with human NK effector cells; type: cell-based; conditions: human Natural Killer effector cells
Source text: (§1) Buffy coats from human donors (ordered through Blodcentralen, Lund) were used to isolate peripheral blood mononuclear cells (PBMCs), and subsequently NK cells. Briefly, peripheral blood components were separated using Ficoll Paque PLUS (Amersham Biosciences, Sweden) in LeucoSep tubes (Greiner Bio-One). The PBMC fraction was removed and thoroughly washed in ice-cold DPBS (Invitrogen), before magnetic labeling and separation of the NK cell population using positive or negative NK cell isolation kits and MACS LS columns (Miltenyi Biotec). The purity of the obtained NK cell fractions was analyzed using flow cytometry, after staining with α-CD56 antibodies (BD Biosciences). Target cells were harvested, and incubated in medium with or without the respective antibodies (2 μg/mL) for 60 min on ice. Cells were thereafter washed and resuspended in cold medium before dispension into FACS tubes. Subsequently, isolated NK cells were diluted in ADCC medium and dispensed together with the respective antibody-coated target cells at varying effector/target cell ratios (40:1, 20:1, 5:1 and 1:1). All experiments were performed in triplicates. After completed incubation ToPo-Pro-3 dye and counting beads (Invitrogen) were added and cells were analyzed for membrane permeabilization using flow cytometry.

[2] = system: HUVEC, HMVEC or peripheral blood B cells; assay: ADCC of normal ICAM-1 expressing cells; type: cell-based
Source text: as §1

ARH-77 tumors = assay: Subcutaneous scid/ARH-77 xenograft, established (palpable tumor) model; conditions: IgG B11 even at 0.2 mg/kg (100-fold lower dose than rituximab)
Procedure: Mice were anaesthetized with a mixture of sevofluran and oxygen prior to myeloma cell inoculation and 1-5×10^6 myeloma cells were then subcutaneously injected in a volume of 100 μl into the left flank. Treatment with antibodies by intraperitonial (i.p.) injections was started either the day after cell inoculation (prophylactic model) or when tumors reached a size of approximately 100 mm^3 (established model). Antibodies were administrated in PBS in a total volume of 200 μL. Treatment with PBS or isotype control was used as control. Tumors were measured with a digital calliper and the tumor volumes were calculated according to formula: width^2×length×0.52. Animals were sacrificed when the tumor sizes reached the ethical limit of 1.5 cm. Surviving mice were sacrificed after a maximum of 5 months. Blood samples collected from the vena cava were centrifuged at 2500 g for 15 min to obtain serum and the samples were stored at −20° C. Tumors were removed for immunohistochemistry, snap frozen and were kept at −85° C.

OPM-2 myeloma cells = assay: Subcutaneous myeloma xenograft, OPM-2 (ICAM-1 negative); type: in vivo, scid mice; conditions: 2 mg/kg twice weekly i.p.; ICAM-1 negative cell line
Procedure: Antibody treatment with 2 mg/kg BI-505 or control IgG1 was started at Day 1 and was continued on a twice-weekly intraperitoneal dosing regimen. Mice were sacrificed when tumor sizes reached the ethical limit.

Daudi lymphoma cells = assay: Programmed cell death (PCD) assay, Daudi; type: cell-based, human
Procedure: Target cells were seeded in 96-well culture plates at a density of 2×10^6 cells/mL culture medium. […] The cells were then incubated for 16 hours at 37° C. in a humidified atmosphere of 5% CO2. The cells were harvested and stained for Annexin V-488/Propidium Iodide (Invitrogen, Sweden) and analysed using flow cytometer (FACS Calibur, BD Bioscience).

[3] = system: HUVEC and HMVEC endothelial cells; assay: PCD in normal endothelial cells; type: cell-based; conditions: resting or activated (IFN-γ) cells
Procedure: Target cells were seeded in 96-well culture plates at a density of 2×10^6 cells/mL culture medium. Titrated concentrations of IgG1 B11 or different negative and positive control antibodies were added to the cells, in the absence or presence of anti-human Fab fragment (Jackson ImmunoResearch) for cross-linking. The cells were then incubated for 16 hours at 37° C. in a humidified atmosphere of 5% CO2. The cells were harvested and stained for Annexin V-488/Propidium Iodide (Invitrogen, Sweden) and analysed using flow cytometer (FACS Calibur, BD Bioscience).

[4] = system: F4/80 positive host effector cells in ARH-77 xenograft tissue; conditions: compared to control IgG, untreated and rituximab treated mice
Procedure: (FIG. 7A) ARH-77 cells were injected subcutaneously into the left flank of SCID mice (n=8 per group). […] Statistical significance was calculated relative to control antibody treatment using Kruskal-Wallis Test (Nonparametric ANOVA) with Dunn's Multiple Comparisons Test. Statistical significance was considered for *p<0.05, **p<0.01, and ***p<0.001.

Daudi cells = assay: Subcutaneous Daudi non-Hodgkin lymphoma xenograft; type: in vivo, scid mice; conditions: twice weekly i.p. from day 1; compared to rituximab
mouse FcγRIV = target: T1, mouse FcγRIV (Mus musculus, UniProt A0A0B4J1G0); assay: Biacore binding of BI-505 isotype variants to mouse FcγRIV
T1 construct: made in house; host or cells: HEK293E (transient)
T1 sequence (A0A0B4J1G0 21-249): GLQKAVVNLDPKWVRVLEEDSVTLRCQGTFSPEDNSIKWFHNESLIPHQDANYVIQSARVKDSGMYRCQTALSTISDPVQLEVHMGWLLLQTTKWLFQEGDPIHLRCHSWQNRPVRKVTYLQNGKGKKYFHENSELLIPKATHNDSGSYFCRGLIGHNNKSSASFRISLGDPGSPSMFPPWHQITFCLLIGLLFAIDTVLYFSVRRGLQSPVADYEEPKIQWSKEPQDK
Procedure: His-tagged human FcγRIIIa or mouse FcγRIV were expressed transient in adherent HEK293E cells, purified using Ni-NTA chromatography and characterized using SDS-PAGE and/or Biacore. Surface plasmon resonance (SPR) measurements were perfomed using a Biacore 3000 instrument. Goat α-human-F(ab)′2 F(ab)′2 fragment (Jackson laboratories) was immobilised with a CM-5 chip using a standard amine coupling protocol. IgG1 B11, Iga4 B11, or 297Q B11 were diluted to 15 and 60 μg/mL respectively and added to the surface at […] for 3 min. His tagged human FcγRIIIa or mouse FcγRIV were pre-incubated with an α-HIS antibody (R&D Systems) at a 2:1 molar ratio before addition to the chip surface, […], 1 min. After each cycle the surface was regenerated twice with glycine buffer pH 1.7.

B1: IgG B11: fully human ICAM-1 antibody isolated from the n-CoDeR library; VH/VL sequences in FIG. 15 (SEQ ID NOs 8, 10) (antibody, V domains shown)
VH: EVQLLESGGGLVQPGGSLRLSCAASGFTFSNAWMSWVRQAPGKGLEWVAFIWYDGSNKYYADSVKGRFTISRDNSKNTLYLQMNSLRAEDTAVYYCARYSGWYFDYWGQGTLVTVSS
VL: QSVLTQPPSASGTPGQRVTISCTGSSSNIGAGYDVHWYQQLPGTAPKLLIYDNNNRPSGVPDRFSGSKSGTSASLAISGLRSEDEADYYCQSYDSSLSAWLFGGGTKLTVLG
modifications: B11 VH region; B11 VL region
cell proliferation (PBMC; added in solution, resting or lipopolysaccharide pre-stimulated PBMCs): did not induce cell proliferation
cell proliferation (PBMC; immobilised by either protocol, or in solution with or without cross-linking reagent): did not induce cell proliferation
ADCC of target tumor cells [1]: mediated ADCC
ADCC of normal cells [2]: did not confer ADCC
animal survival (ARH-77 tumors): prolonged animal survival
tumor growth (ARH-77 tumors): significantly prevented tumor growth
tumor growth (OPM-2 myeloma cells): no effect on tumor growth; also recorded: did not affect tumor growth
PCD induction (Daudi lymphoma cells; antibody immobilised by either of two coating protocols): induced programmed cell death
PCD induction (Daudi lymphoma cells; titrated antibody with cross-linking, 16 hours): dose dependent PCD-induction
PCD induction in normal endothelial cells [3]: did not, however, induce PCD
influx of F4/80+ host effector cells (macrophage infiltration) in tumor tissue [4]: massive influx
influx of F4/80+ host effector cells (macrophage infiltration) in tumor tissue ([4]; listed as BI-505): significantly increased
survival of tumor bearing mice (Daudi cells): prolonged survival
tumor growth (Daudi cells): prevented tumor growth
binding to murine FcγRIV (mouse FcγRIV): strong binding
